{
  "source": "patent US20180155451A1",
  "about": "(published 2018)",
  "binders": {"B1": {"name": "GpH7-A5/GpH7-B3 variant G237_10E/GpL16-k0 (antibody, human IgG1, kappa)", "heavy 1": "not shown", "heavy 2": "not shown", "light": "DIVMTQSPLSLPVTPGEPASISCQASESLVHSNRNTYLHWYLQKPGQSPQLLIYKVSNRFSGVPDRFSGSGSGTDFTLKISRVEAEDVGVYYCSQNTHVPPTFGQGTKVEIERTVAAPSVFIFPPSDEQLKSGTASVVCLLNNFYPREAKVQWKVDNALQSGNSQESVTEQDSKDSTYSLSSTLTLSKADYEKHKVYACEVTHQGLSSPVTKSFNRGEC", "notes": "also called He Ab G237_10E"}, "B2": {"name": "GpH7-A5/GpH7-B3 variant H268_15Y/GpL16-k0 (antibody, human IgG1, kappa)", "heavy 1": "not shown", "heavy 2": "not shown", "light": "DIVMTQSPLSLPVTPGEPASISCQASESLVHSNRNTYLHWYLQKPGQSPQLLIYKVSNRFSGVPDRFSGSGSGTDFTLKISRVEAEDVGVYYCSQNTHVPPTFGQGTKVEIERTVAAPSVFIFPPSDEQLKSGTASVVCLLNNFYPREAKVQWKVDNALQSGNSQESVTEQDSKDSTYSLSSTLTLSKADYEKHKVYACEVTHQGLSSPVTKSFNRGEC", "notes": "also called He Ab H268_15Y"}, "B3": {"name": "GpH7-A5/GpH7-B3 variant H268_01G/GpL16-k0 (antibody, human IgG1, kappa)", "heavy 1": "not shown", "heavy 2": "not shown", "light": "DIVMTQSPLSLPVTPGEPASISCQASESLVHSNRNTYLHWYLQKPGQSPQLLIYKVSNRFSGVPDRFSGSGSGTDFTLKISRVEAEDVGVYYCSQNTHVPPTFGQGTKVEIERTVAAPSVFIFPPSDEQLKSGTASVVCLLNNFYPREAKVQWKVDNALQSGNSQESVTEQDSKDSTYSLSSTLTLSKADYEKHKVYACEVTHQGLSSPVTKSFNRGEC", "notes": "also called He Ab H268_01G"}, "B4": {"name": "GpH7-A5/GpH7-B3 variant G237_13S/GpL16-k0 (antibody, human IgG1, kappa)", "heavy 1": "not shown", "heavy 2": "not shown", "light": "DIVMTQSPLSLPVTPGEPASISCQASESLVHSNRNTYLHWYLQKPGQSPQLLIYKVSNRFSGVPDRFSGSGSGTDFTLKISRVEAEDVGVYYCSQNTHVPPTFGQGTKVEIERTVAAPSVFIFPPSDEQLKSGTASVVCLLNNFYPREAKVQWKVDNALQSGNSQESVTEQDSKDSTYSLSSTLTLSKADYEKHKVYACEVTHQGLSSPVTKSFNRGEC", "notes": "also called He Ab G237_13S"}, "B5": {"name": "GpH7-A5/GpH7-B3 variant I332_06M/GpL16-k0 (antibody, human IgG1, kappa)", "heavy 1": "not shown", "heavy 2": "not shown", "light": "DIVMTQSPLSLPVTPGEPASISCQASESLVHSNRNTYLHWYLQKPGQSPQLLIYKVSNRFSGVPDRFSGSGSGTDFTLKISRVEAEDVGVYYCSQNTHVPPTFGQGTKVEIERTVAAPSVFIFPPSDEQLKSGTASVVCLLNNFYPREAKVQWKVDNALQSGNSQESVTEQDSKDSTYSLSSTLTLSKADYEKHKVYACEVTHQGLSSPVTKSFNRGEC", "notes": "also called He Ab I332_06M"}, "B6": {"name": "GpH7-A5/GpH7-B3 variant K326_07I/GpL16-k0 (antibody, human IgG1, kappa)", "heavy 1": "not shown", "heavy 2": "not shown", "light": "DIVMTQSPLSLPVTPGEPASISCQASESLVHSNRNTYLHWYLQKPGQSPQLLIYKVSNRFSGVPDRFSGSGSGTDFTLKISRVEAEDVGVYYCSQNTHVPPTFGQGTKVEIERTVAAPSVFIFPPSDEQLKSGTASVVCLLNNFYPREAKVQWKVDNALQSGNSQESVTEQDSKDSTYSLSSTLTLSKADYEKHKVYACEVTHQGLSSPVTKSFNRGEC", "notes": "also called He Ab K326_07I"}, "B7": {"name": "GpH7-A5/GpH7-B3 variant H268_11K/GpL16-k0 (antibody, human IgG1, kappa)", "heavy 1": "not shown", "heavy 2": "not shown", "light": "DIVMTQSPLSLPVTPGEPASISCQASESLVHSNRNTYLHWYLQKPGQSPQLLIYKVSNRFSGVPDRFSGSGSGTDFTLKISRVEAEDVGVYYCSQNTHVPPTFGQGTKVEIERTVAAPSVFIFPPSDEQLKSGTASVVCLLNNFYPREAKVQWKVDNALQSGNSQESVTEQDSKDSTYSLSSTLTLSKADYEKHKVYACEVTHQGLSSPVTKSFNRGEC", "notes": "also called He Ab H268_11K"}, "B8": {"name": "GpH7-A5/GpH7-B3 variant G237_20W/GpL16-k0 (antibody, human IgG1, kappa)", "heavy 1": "not shown", "heavy 2": "not shown", "light": "DIVMTQSPLSLPVTPGEPASISCQASESLVHSNRNTYLHWYLQKPGQSPQLLIYKVSNRFSGVPDRFSGSGSGTDFTLKISRVEAEDVGVYYCSQNTHVPPTFGQGTKVEIERTVAAPSVFIFPPSDEQLKSGTASVVCLLNNFYPREAKVQWKVDNALQSGNSQESVTEQDSKDSTYSLSSTLTLSKADYEKHKVYACEVTHQGLSSPVTKSFNRGEC", "notes": "also called He Ab G237_20W"}, "B9": {"name": "GpH7-A5/GpH7-B3 variant H268_12R/GpL16-k0 (antibody, human IgG1, kappa)", "heavy 1": "not shown", "heavy 2": "not shown", "light": "DIVMTQSPLSLPVTPGEPASISCQASESLVHSNRNTYLHWYLQKPGQSPQLLIYKVSNRFSGVPDRFSGSGSGTDFTLKISRVEAEDVGVYYCSQNTHVPPTFGQGTKVEIERTVAAPSVFIFPPSDEQLKSGTASVVCLLNNFYPREAKVQWKVDNALQSGNSQESVTEQDSKDSTYSLSSTLTLSKADYEKHKVYACEVTHQGLSSPVTKSFNRGEC", "notes": "also called He Ab H268_12R"}, "B10": {"name": "GpH7-A5/GpH7-B3 variant K326_03V/GpL16-k0 (antibody, human IgG1, kappa)", "heavy 1": "not shown", "heavy 2": "not shown", "light": "DIVMTQSPLSLPVTPGEPASISCQASESLVHSNRNTYLHWYLQKPGQSPQLLIYKVSNRFSGVPDRFSGSGSGTDFTLKISRVEAEDVGVYYCSQNTHVPPTFGQGTKVEIERTVAAPSVFIFPPSDEQLKSGTASVVCLLNNFYPREAKVQWKVDNALQSGNSQESVTEQDSKDSTYSLSSTLTLSKADYEKHKVYACEVTHQGLSSPVTKSFNRGEC", "notes": "also called He Ab K326_03V"}, "B11": {"name": "GpH7-A5/GpH7-B3 variant H268_03V/GpL16-k0 (antibody, human IgG1, kappa)", "heavy 1": "not shown", "heavy 2": "not shown", "light": "DIVMTQSPLSLPVTPGEPASISCQASESLVHSNRNTYLHWYLQKPGQSPQLLIYKVSNRFSGVPDRFSGSGSGTDFTLKISRVEAEDVGVYYCSQNTHVPPTFGQGTKVEIERTVAAPSVFIFPPSDEQLKSGTASVVCLLNNFYPREAKVQWKVDNALQSGNSQESVTEQDSKDSTYSLSSTLTLSKADYEKHKVYACEVTHQGLSSPVTKSFNRGEC", "notes": "also called He Ab H268_03V"}},
  "data": [
    {"target": "T1, FcγRIIa R (human, UniProt P12318 34-217)", "T1 construct": "extracellular domain; also called FcgRIIa R type; 2aR", "T1 sequence (looked up)": "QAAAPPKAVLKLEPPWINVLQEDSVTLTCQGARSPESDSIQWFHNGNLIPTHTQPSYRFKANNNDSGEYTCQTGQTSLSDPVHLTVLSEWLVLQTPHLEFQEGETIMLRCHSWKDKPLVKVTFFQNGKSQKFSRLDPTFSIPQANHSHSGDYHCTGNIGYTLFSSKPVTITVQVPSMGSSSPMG", "experiment": "SPR Biacore; vs GpH7-A5/GpH7-B3/GpL16-k0 =100", "values": [
      {"binder": "B1", "He/Con_2aR": "116 % of control"},
      {"binder": "B2", "He/Con_2aR": "110 % of control"},
      {"binder": "B3", "He/Con_2aR": "124 % of control"},
      {"binder": "B4", "He/Con_2aR": "121 % of control"},
      {"binder": "B5", "He/Con_2aR": "109 % of control"},
      {"binder": "B6", "He/Con_2aR": "147 % of control"},
      {"binder": "B7", "He/Con_2aR": "100 % of control"},
      {"binder": "B8", "He/Con_2aR": "138 % of control"},
      {"binder": "B9", "He/Con_2aR": "105 % of control"},
      {"binder": "B10", "He/Con_2aR": "141 % of control"},
      {"binder": "B11", "He/Con_2aR": "109 % of control"}
    ]}
  ]
}
